{"source": "patent US8703459B2", "about": "“Catalytic domains of beta(1,4)-galactosyltransferase I having altered metal ion specificity” (The United States of America, as represented by the …, priority 2003, dated 2014)", "molecules": {"B1": {"name": "M344E-Gal-T1: bovine β4Gal-T1 catalytic domain (C342T) with Met344 mutated to glutamic acid (protein, listed as Bos taurus)", "chain": "MKFREPLLGGSAAMPGASLQRACRLLVAVCALHLGVTLVYYLAGRDLRRLPQLVGVHPPLQGSSHGAAAIGQPSGELRLRGVAPPPPLQNSSKPRSRAPSNLDAYSHPGPGPGPGSNLTSAPVPSTTTRSLTACPEESPLLVGPMLIEFNIPVDLKLIEQQNPKVKLGGRYTPMDCISPHKVAIIILFRNRQEHLKYWLYYLHPMVQRQQLDYGIYVINQAGESMFNRAKLLNVGFKEALKDYDYNCFVFSDVDLIPMNDHNTYRCFSQPRHISVAMDKFGFSLPYVQYFGGVSALSKQQFLSINGFPNNYWGWGGEDDDIYNRLAFRGMSVSRPNAVIGKCREIRHSRDKKNEPNPQRFDRIAHTKETMLSDGLNSLTYMVLEVQRYPLYTKITVDIGTPS"}, "B2": {"name": "M344S: Met344 mutant of β4Gal-T1 (protein, listed as Bos taurus)", "chain": "B1 chain with E344S"}, "B3": {"name": "M344Q: Met344 mutant of β4Gal-T1, Met344 to Gln (protein, listed as Bos taurus)", "chain": "B1 chain with E344Q"}, "B4": {"name": "M344A: Met344 mutant of β4Gal-T1, Met344 to Ala (protein, listed as Bos taurus)", "chain": "B1 chain with E344A"}}, "note": "Numbering of substitutions follows the chain as printed. Names and notes keep the numbering of the source. Marks after values point to notes of the source that are not given here.", "data": [{"experiment": "β4Gal-T enzyme assay, specific activity in the presence of various metal ions", "format": "biochemical, bovine", "conditions": "0.1 mM Co^2+, 500 μM UDP-Gal, 25 mM GlcNAc", "protocol": "(§1) Protein concentrations were measured using the Bio-Rad Protein Assay kit, based on the method of Bradford and further verified on SDS-PAGE gels using standard protein concentration markers. An in vitro assay procedure for Gal-T1 has been reported previously (Ramakrishnan et al., J. Mol. Biol., 310:205 (2001)). The activities were measured using UDP-Gal as sugar nucleotide donor, and GlcNAc as the acceptor sugar. For the specific activity measurements, a 100 μL incubation mixture containing 25 mM GlcNAc, 5 mM MnCl2 or MgCl2, 20 mM Tris-HCl pH 8.0, 500 μM UDP-Gal, 500 ng M344H-Gal-T1 or 30 ng of C342T-Gal-T1 and 0.5 μCi ^3H-UDP-Gal was used for each Gal-T reaction. The incubation was carried out at 30° C. for 15 minutes. The reaction was terminated by adding of 200 μl cold water, and the mixture was passed through a 0.5 mL bed volume column of AG 1-X8 […] resin (Bio-Rad) to remove any unreacted ^3H-UDP-Gal. The column was washed successively with 300, 400 and 500 μl of cold water, and the column flow-through was diluted with Biosafe scintillation fluid; radioactivity was measured with a Beckman counter. A reaction without the acceptor sugar was used as a control. Only 0.1 mM concentration of ZnCl2 or CoCl2 was used whenever Zn^2+ or Co^2+ was used during the enzyme assay.", "values": [{"molecule": "B1", "Catalytic Activity in the Presence of Various Metal Ions: Co": "0.24 picomoles per minute per nanogram"}, {"molecule": "B2", "Catalytic Activity in the Presence of Various Metal Ions: Co": "0.41 picomoles per minute per nanogram"}, {"molecule": "B3", "Catalytic Activity in the Presence of Various Metal Ions: Co": "0.80^b picomoles per minute per nanogram"}, {"molecule": "B4", "Catalytic Activity in the Presence of Various Metal Ions: Co": "0.61^b picomoles per minute per nanogram"}]}, {"experiment": "β4Gal-T enzyme assay, specific activity in the presence of various metal ions", "format": "biochemical, bovine", "conditions": "0.1 mM Zn^2+, 500 μM UDP-Gal, 25 mM GlcNAc", "protocol": "as §1", "values": [{"molecule": "B1", "Catalytic Activity in the Presence of Various Metal Ions: Zn": "0.27 picomoles per minute per nanogram"}, {"molecule": "B2", "Catalytic Activity in the Presence of Various Metal Ions: Zn": "0.40 picomoles per minute per nanogram"}, {"molecule": "B3", "Catalytic Activity in the Presence of Various Metal Ions: Zn": "0.71 picomoles per minute per nanogram"}, {"molecule": "B4", "Catalytic Activity in the Presence of Various Metal Ions: Zn": "0.64 picomoles per minute per nanogram"}]}, {"experiment": "β4Gal-T enzyme assay, specific activity in the presence of various metal ions", "format": "biochemical, bovine", "conditions": "5 mM metal ion, 500 μM UDP-Gal, 25 mM GlcNAc", "protocol": "as §1", "values": [{"molecule": "B1", "Catalytic Activity in the Presence of Various Metal Ions: Ca": "0.01 picomoles per minute per nanogram", "Catalytic Activity in the Presence of Various Metal Ions: Mg": "0 picomoles per minute per nanogram", "Catalytic Activity in the Presence of Various Metal Ions: Mn": "0.32 picomoles per minute per nanogram", "Catalytic Activity in the Presence of Various Metal Ions: Sr": "0.02 picomoles per minute per nanogram"}, {"molecule": "B2", "Catalytic Activity in the Presence of Various Metal Ions: Ca": "0 picomoles per minute per nanogram", "Catalytic Activity in the Presence of Various Metal Ions: Mg": "0 picomoles per minute per nanogram", "Catalytic Activity in the Presence of Various Metal Ions: Mn": "1.97 picomoles per minute per nanogram", "Catalytic Activity in the Presence of Various Metal Ions: Sr": "0 picomoles per minute per nanogram"}, {"molecule": "B3", "Catalytic Activity in the Presence of Various Metal Ions: Ca": "0 picomoles per minute per nanogram", "Catalytic Activity in the Presence of Various Metal Ions: Mg": "0 picomoles per minute per nanogram", "Catalytic Activity in the Presence of Various Metal Ions: Mn": "1.91 picomoles per minute per nanogram", "Catalytic Activity in the Presence of Various Metal Ions: Sr": "0 picomoles per minute per nanogram"}, {"molecule": "B4", "Catalytic Activity in the Presence of Various Metal Ions: Ca": "0 picomoles per minute per nanogram", "Catalytic Activity in the Presence of Various Metal Ions: Mg": "0 picomoles per minute per nanogram", "Catalytic Activity in the Presence of Various Metal Ions: Mn": "4.16 picomoles per minute per nanogram", "Catalytic Activity in the Presence of Various Metal Ions: Sr": "0 picomoles per minute per nanogram"}]}, {"experiment": "Metal ion activation curve, metal binding constants for Mn^2+", "format": "biochemical, bovine", "conditions": "Mn^2+", "source_text": "(§2) The activation curve of M344E-Gal-T1, using Mn^2+, is strikingly different from that of the wild-type enzyme (FIGS. 1A and 1B). In contrast to the wild type enzyme, the velocity curve obtained with the Mn^2+ concentration for the M344E-Gal-T1 mutant is not sigmoidal. On the other hand, the same curve for the M344H-Gal-T1 mutant in the presence of the Mg^2+ is sigmoidal (FIG. 1C). The observation that activation of the wild type enzyme by metal ions is sigmoidal has been interpreted as involving two metal binding sites in the enzyme: one with high affinity (Kd1), which is associated with low velocity, and a second site with low affinity (Kd2), which is associated with high velocity (Powell and Brew, J. Biol. Chem., 251:3645 (1976); Boeggeman and Qasba, Glycobiology, 12:395 (2002)). […] The values of the dissociation constant (Kd) for Mn^2+ of the mutant are quite different from that of the wild type (Table IV).\n(§3) The enzyme activation data at various concentrations of Mg^2+ were fitted to an equation describing metal binding to a high affinity site (K1) to generate an enzyme form with a low kcat (V1) and to a second, lower affinity site (K2) to generate a form with a higher kcat (V2) (Boeggeman and Qasba, Glycobiology, 12:395 (2002)): […]", "values": [{"molecule": "B1", "K1 compared with binding to the primary site of the wild type": "fifty-fold lower"}]}, {"experiment": "Metal ion activation curve, metal binding constants for Mn^2+", "format": "biochemical, bovine", "conditions": "single metal binding site model, derived from FIG. 1B; read-out: binding constant K1 for Mn^2+", "source_text": "as §2, §3", "units": {"Kd": "nM"}, "values": [{"molecule": "B1", "Kd": 500}]}]}
